Test in all cases: high-throughput RNA pulldown from lysate on Ni-NTA beads; HRP: 50 mM Tris pH 8, 150 mM NaCl, 1 mM beta-mercaptoethanol, 50 ug/ml BSA, 3 ug/ml yeast RNA, 0.5% heparin; ITC and FP: Tris pH 8, 200 mM KCl, 5% glycerol; MST: 50 mM Tris pH 8, 200 mM NaCl, 1 mM DTT, BSA, heparin, 0.05% Tween 20
Holding throughout (conditions): tags: N-terminal His-eGFP

The target in series [1] is T1, GFP-9S library array, motif 4 ND N98V;D124Q (synthetic construct, N98V;D124Q).
T1 chain: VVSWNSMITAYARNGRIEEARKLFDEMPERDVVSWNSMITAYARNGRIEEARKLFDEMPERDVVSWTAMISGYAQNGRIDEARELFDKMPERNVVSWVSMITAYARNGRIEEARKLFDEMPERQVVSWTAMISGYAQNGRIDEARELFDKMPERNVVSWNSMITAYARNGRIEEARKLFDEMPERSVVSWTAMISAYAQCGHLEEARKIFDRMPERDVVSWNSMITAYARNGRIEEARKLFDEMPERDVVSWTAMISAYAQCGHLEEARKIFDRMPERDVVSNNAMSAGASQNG

In series [2] the target is T2, GFP-9S library array, motif 4 ND N98Y;D124H (synthetic construct, N98Y;D124H).
T2 chain: T1 chain with V98Y, Q124H

In series [3] the target is T3, GFP-9S library array, motif 4 ND N98E;D124W (synthetic construct, N98E;D124W).
T3 chain: T1 chain with V98E, Q124W

For series [4], the target named is T4, GFP-9S library array, motif 4 ND N98G;D124N (synthetic construct, N98G;D124N).
T4 chain: T1 chain with V98G, Q124N

Series [5] concerns the target T5, GFP-9S library array, motif 4 ND N98M;D124Y (synthetic construct, N98M;D124Y).
T5 chain: T1 chain with V98M, Q124Y

Residue numbers refer to the chain shown, from its start.

As usually defined, the Kd is the concentration at which binding is half-saturated. High values mean lower affinity, low ones higher affinity. As to AUUAUACGUGA (ssRNA) [IR-rpoA-U], the Kd is 167 nM in series [1] (label: 5' IRDye 800CW); 169 nM in series [2] (label: 5' IRDye 800CW); 648 nM in series [3] (label: 5' IRDye 800CW); 82.7 nM in series [4] (label: 5' IRDye 800CW); 682 nM in series [5] (label: 5' IRDye 800CW).

Consider AUUAGACGUGA (ssRNA) [Cy5-rpoA-G], for which the Kd in series [1] (label: 5' Cy5) came to 126 nM; in series [2] (label: 5' Cy5), 46 nM; in series [3] (label: 5' Cy5), 198 nM; in series [4] (label: 5' Cy5), 276 nM; in series [5] (label: 5' Cy5) it was 167 nM.

In the case of AUUACACGUGA (ssRNA) [Cy5-rpoA], the Kd amounted to 144 nM in series [1] (label: 5' Cy5); 5.06 nM in series [2] (label: 5' Cy5); 213 nM in series [3] (label: 5' Cy5); 155 nM in series [4] (label: 5' Cy5); 216 nM in series [5] (label: 5' Cy5).

For AUUAAACGUGA (ssRNA) [IR-rpoA-A], the Kd in series [1] (label: 5' IRDye 800CW) was 166 nM; in series [2] (label: 5' IRDye 800CW), 111 nM; in series [3] (label: 5' IRDye 800CW), 630 nM; in series [4] (label: 5' IRDye 800CW), 41.2 nM; in series [5] (label: 5' IRDye 800CW), 488 nM.

These data come from article PMC8809517, “Cofactor-independent RNA editing by a synthetic S-type PPR protein”.
